Experimental data reported in US20230398224A1.
Positions of bridges follow the written chain, without caps; N, C: chain ends. Non-standard residues stand in square brackets, D forms with d. Groups on a side chain read outwards from the residue. int‑CC7 = mannose-6-phosphonate M6PR ligand; Bip = N[C@@H](Cc1ccc(-c2ccccc2)cc1)C(=O)O; NMeA = CN[C@@H](C)C(=O)O

molecular target: Purified recombinant full length human PCSK9 with C-terminal biotinylated Avitag (human) (UniProt Q8NBP7); test: SPR, ProteOn XPR36; biotinylated human PCSK9 on NeutrAvidin NLC chip
Sequence (Q8NBP7 31-692): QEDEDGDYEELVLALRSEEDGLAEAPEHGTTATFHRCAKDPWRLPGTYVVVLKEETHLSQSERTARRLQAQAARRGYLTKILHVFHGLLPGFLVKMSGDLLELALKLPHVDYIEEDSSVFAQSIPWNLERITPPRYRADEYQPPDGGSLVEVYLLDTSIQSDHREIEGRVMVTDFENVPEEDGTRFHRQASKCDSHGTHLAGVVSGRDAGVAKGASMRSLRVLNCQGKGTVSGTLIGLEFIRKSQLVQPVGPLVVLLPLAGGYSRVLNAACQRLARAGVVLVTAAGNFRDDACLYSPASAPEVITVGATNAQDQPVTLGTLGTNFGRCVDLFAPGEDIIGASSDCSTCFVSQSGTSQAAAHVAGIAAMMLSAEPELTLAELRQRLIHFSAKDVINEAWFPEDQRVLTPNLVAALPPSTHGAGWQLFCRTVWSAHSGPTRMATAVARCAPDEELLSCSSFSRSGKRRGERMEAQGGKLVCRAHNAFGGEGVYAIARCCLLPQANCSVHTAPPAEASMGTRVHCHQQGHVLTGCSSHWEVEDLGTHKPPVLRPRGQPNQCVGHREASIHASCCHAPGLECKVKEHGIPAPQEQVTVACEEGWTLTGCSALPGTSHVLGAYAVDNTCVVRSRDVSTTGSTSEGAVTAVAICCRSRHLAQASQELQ

| Binder | Kd [nM] |
| --- | --- |
| {CH2CO}-FVPTT[Bip][NMeA][Bip][NMeA]EAPCGK-NH2 (thioether N-13; not fully specified (residue 15); also: further groups not given here) [Bifunctional compound (BFC-3)] | 7.7 |
| {CH2CO}-FVPTT[Bip][NMeA][Bip][NMeA]EAPCGK([Lys(4-oxopentanoyl)-int‑CC7])-NH2 (thioether N-13; not fully specified; also: further groups not given here) [Bifunctional compound (BFC-8)] | 4.9 |
| {CH2CO}-FVPTT[Bip][NMeA][Bip][NMeA]EAPCGK([Lys(4-oxopentanoyl)-int‑CC7])-NH2 (thioether N-13; not fully specified; also: further groups not given here) [Bifunctional compound (BFC-9)] | 7.4 |
